Patent US20200399381A1 (I MAB BIOPHARMA US, published 2020)
Where a chain is given by its changes, count along the chain named.

T1: hIFNAR-1(1aa-409aa) H273A (human, UniProt P17181 28-436)
T1 construct: range 1-409
T1 sequence (looked up): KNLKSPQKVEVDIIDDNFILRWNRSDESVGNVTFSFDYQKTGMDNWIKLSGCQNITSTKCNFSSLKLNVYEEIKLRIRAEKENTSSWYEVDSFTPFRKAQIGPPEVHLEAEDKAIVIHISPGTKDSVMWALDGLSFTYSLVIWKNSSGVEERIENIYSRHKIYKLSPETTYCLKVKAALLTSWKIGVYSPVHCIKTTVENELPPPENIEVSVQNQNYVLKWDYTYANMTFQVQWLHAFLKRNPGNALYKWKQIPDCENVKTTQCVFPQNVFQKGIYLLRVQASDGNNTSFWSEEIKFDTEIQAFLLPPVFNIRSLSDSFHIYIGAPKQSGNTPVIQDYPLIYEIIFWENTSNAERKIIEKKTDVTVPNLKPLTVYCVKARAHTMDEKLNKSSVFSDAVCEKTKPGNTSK

T2: hIFNAR-1(1aa-409aa) Y275A (human, UniProt P17181 28-436)
T2 construct: range 1-409
T2 sequence (looked up): T1 sequence (looked up) with A246H, Y248A

T3: hIFNAR-1(1aa-409aa) K276A (human, UniProt P17181 28-436)
T3 construct: range 1-409
T3 sequence (looked up): T1 sequence (looked up) with A246H, K249A

T4: hIFNAR-1(1aa-409aa) K278A (human, UniProt P17181 28-436)
T4 construct: range 1-409
T4 sequence (looked up): T1 sequence (looked up) with A246H, K251A

T5: hIFNAR-1(1aa-409aa) L274A (human, UniProt P17181 28-436)
T5 construct: range 1-409
T5 sequence (looked up): T1 sequence (looked up) with A246H, L247A

T6: human IFNAR-1 protein (form not stated) (human, UniProt P17181 28-436, limits assumed)
T6 construct: bispecific ELISA
T6 sequence (looked up): T1 sequence (looked up) with A246H

T7: human IFNAR-1 on cells (human, UniProt P17181 28-557)
T7 sequence (looked up): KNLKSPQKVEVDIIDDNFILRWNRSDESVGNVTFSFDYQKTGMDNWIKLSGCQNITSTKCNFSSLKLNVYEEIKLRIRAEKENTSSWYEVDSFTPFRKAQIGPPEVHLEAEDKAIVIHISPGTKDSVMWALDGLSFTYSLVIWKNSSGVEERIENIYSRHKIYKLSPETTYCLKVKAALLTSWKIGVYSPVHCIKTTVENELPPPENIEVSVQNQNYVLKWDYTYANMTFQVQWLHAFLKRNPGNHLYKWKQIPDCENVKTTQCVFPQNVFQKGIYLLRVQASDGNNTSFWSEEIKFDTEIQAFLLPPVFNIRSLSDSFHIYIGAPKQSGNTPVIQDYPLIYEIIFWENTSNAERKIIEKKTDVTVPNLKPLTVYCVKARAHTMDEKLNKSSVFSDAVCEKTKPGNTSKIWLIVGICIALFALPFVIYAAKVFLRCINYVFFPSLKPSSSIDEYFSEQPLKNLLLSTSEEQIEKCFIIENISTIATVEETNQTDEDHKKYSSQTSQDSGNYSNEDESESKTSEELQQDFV

B1: Anifrolumab (antibody, V domains shown)
VH: EVQLVQSGAEVKKPGESLKISCKGSGYIFTNYWIAWVRQMPGKGLESMGIIYPGDSDIRYSPSFQGQVTISADKSITTAYLQWSSLKASDTAMYYCARHDIEGFDYWGRGTLVTVSS
VL: EIVLTQSPGTLSLSPGERATLSCRASQSVSSSFFAWYQQKPGQAPRLLIYGASSRATGIPDRLSGSGSGTDFTLTITRLEPEDFAVYYCQQYDSSAITFGQGTRLEIKR
B2: 8G11 chimeric antibody (antibody, V domains shown)
VH: EVQLQQSGAELVKPGASVKLSCTGFGFNIKDYYMHWVKQRAEQGLEWIGRIDPEDGETKYAPKFQGKATITADTSSNTAYLQVSSLTSEDTAVYYCARGGNFYVMDYWGQGTSVTVSS
VL: DIVMTQSQKFMSTSVGDRVSVTCKASQNVGTNVVWYQQKPGQSPKVLIYSASYRVSGVPDRFTGSGSGTDFTLIISNVQSEDLAEYFCQQKNNYPYTFGGGTKLEIK
notes: also called chimeric 8G11
B3: 8G11 Fab (Fab, V domains shown)
VH: B2 VH
VL: B2 VL

Tests used:
[1] = molecular target: T1, hIFNAR-1(1aa-409aa) H273A; assay: flow cytometry on alanine scan clone, normalised to WT
Text: (§1) For each point, background fluorescence was subtracted from the raw data, which were then normalized to Fab reactivity with WT target protein. For each mutant clone, the mean binding value was plotted as a function of expression (represented by control reactivity).

[2] = molecular target: T2, hIFNAR-1(1aa-409aa) Y275A; assay: as above
Text: as §1

[3] = molecular target: T3, hIFNAR-1(1aa-409aa) K276A; assay: as above
Text: as §1

[4] = molecular target: T4, hIFNAR-1(1aa-409aa) K278A; assay: as above
Text: as §1

[5] = molecular target: T5, hIFNAR-1(1aa-409aa) L274A; assay: as above
Text: as §1

[6] = molecular target: T6, human IFNAR-1 protein (form not stated); assay: ELISA on human IFNAR-1 protein
human IFNAR-1 on cells = molecular target: T7, human IFNAR-1 on cells; assay: cell-based or functional assay

Binder	Binding Reactivity (% WT) [1]	Binding Reactivity (% WT) [2]	Binding Reactivity (% WT) [3]	Binding Reactivity (% WT) [4]	Binding Reactivity (% WT) [5]	EC50 (read off the curve) [6]	EC50 (nM), IFNα2b-mediated anti-viral assay (Huh7-Con1b HCV replicon luciferase) (human IFNAR-1 on cells)
B1	88.1 % WT	146 % WT	99.4 % WT	105 % WT	106 % WT	–	–
B2	–	–	–	–	–	~0.1 nM	7.73 nM
B3	31.2 % WT	19.1 % WT	1.5 % WT	3.9 % WT	22.7 % WT	–	–
